Source: article PMC4186791

Target: UbxIVa Pro4 (Drosophila melanogaster)
Assay: two-hybrid; LexA-Ubx variant (pLexA) and B42-partner (pB42) co-transformed into S. cerevisiae EGY48 carrying p8op-LacZ; blue/white colonies on X-gal and liquid β-galactosidase (ONPG) assay after galactose induction at 30°C, reported in Miller units

B1: Armadillo (natural protein)
chain: MSYMPAQNRTMSHNNQYNPPDLPPMVSAKEQTLMWQQNSYLGDSGIHSGAVTQVPSLSGKEDEEMEGDPLMFDLDTGFPQNFTQDQVDDMNQQLSQTRSQRVRAAMFPETLEEGIEIPSTQFDPQQPTAVQRLSEPSQMLKHAVVNLINYQDDAELATRAIPELIKLLNDEDQVVVSQAAMMVHQLSKKEASRHAIMNSPQMVAALVRAISNSNDLESTKAAVGTLHNLSHHRQGLLAIFKSGGIPALVKLLSSPVESVLFYAITTLHNLLLHQDGSKMAVRLAGGLQKMVTLLQRNNVKFLAIVTDCLQILAYGNQESKLIILASGGPNELVRIMRSYDYEKLLWTTSRVLKVLSVCSSNKPAIVDAGGMQALAMHLGNMSPRLVQNCLWTLRNLSDAATKVEGLEALLQSLVQVLGSTDVNVVTCAAGILSNLTCNNQRNKATVCQVGGVDALVRTIINAGDREEITEPAVCALRHLTSRHVDSELAQNAVRLNYGLSVIVKLLHPPSRWPLIKAVIGLIRNLALCPANHAPLREHGAIHHLVRLLMRAFQDTERQRSSIATTGSQQPSAYADGVRMEEIVEGTVGALHILARESHNRALIRQQSVIPIFVRLLFNEIENIQRVAAGVLCELAADKEGAEIIEQEGATGPLTDLLHSRNEGVATYAAAVLFRMSEDKPQDYKKRLSIELTNSLLREDNNIWANADLGMGPDLQDMLGPEEAYEGLYGQGPPSVHSSHGGRAFHQQGYDTLPIDSMQGLEISSPVGGGGAGGAPGNGGAVGGASGGGGNIGAIPPSGAPTSPYSMDMDVGEIDAGALNFDLDAMPTPPNDNNNLAAWYDTDC
  percent of binding lost relative to UbxIb Pro4: 60%

B2: Cap-binding protein 1 (natural protein)
chain: MSRRRAHDTEDEGYDHRRNKRRRVSENQEIEDRLESLILRVGERSTSSVESNLEGLVSVLEADLGTFRLKILRILSDCAVRMPEKCTVYTTLVGLLNAKNYKFGGEFVDHMVKTFKESLKMCRWDAARYSLRFLADLVNCHVISATSLLQLLDTMIDVSNEDTVPQVRRDWFVFAVLSTLPWVGRDLYEKKESALESLLLRIEVYLNKRSKKHHNALRVWSSDAPHPQEEYLDCLWAQIRKLRQDNWAEKHIPRPYLVFDSILCEALQHNLPTIVPPPHHDNFEYPMPWVVYRMFDYTDCPDGPNLPGAHSIERFLIEEHLHHIIETYHHERKDCAAQLLSFPYKHKIPLEYCIVEVVFAELFHMPTPRYLDICYGSILIELCKLQPATLPQVLAQATEILFMRIDSMNTSCFDRFVNWFSYHLSNFKFTWSWDEWDSCLLLDGEHPRPKFIQEVLQKCLRLSYHQRITEMMPTTYAKLIPLTPVPNYKYANEEAANLPGTTVAHQLVVAIRQKCTPEEVVNILKDIPNSGYSGEEMSDGSFNALKIDVFVQTLLNLGSKSFSHSFAAISKFHSVFRALAETEEAQICILHNIFELWSSHQQMMVVLIDKLLKLQIVDCSAVATWIFSKEMTGEFTKLYLWEILHLTIKKMNKHVIKLNTELSEAKEKLAKADSSSSDSEDDSSHKRKKPITHADKPSEEVVERMEEKLEAANVNQKRLFLIVFQRFIMILSEHLLRSDTDGRDPDTDWYRWTIGRLQQVFLMHHEQVQKYSSTLETLLFTSDLDTHILEVFQQFVALRA
  percent of binding lost relative to UbxIb Pro4: 85%
